± gives the standard deviation of the averaged measurements.
Assay: total protein half-life in vivo (active degradation + dilution); higher = more stable protein
[1] = E. coli NCM3722 delta-clpP delta-lon delta-hslV, growth: N-lim chemostat, doubling time 6 h
[2] = E. coli NCM3722 delta-clpP, growth: N-lim chemostat, doubling time 6 h
[3] = E. coli NCM3722 delta-hslV, growth: N-lim chemostat, doubling time 6 h
[4] = E. coli NCM3722 delta-smpB, growth: N-lim chemostat, doubling time 6 h
[5] = wild type E. coli NCM3722, growth: C-lim chemostat, doubling time 3 h
[6] = wild type E. coli NCM3722, growth: C-lim chemostat, doubling time 6 h
[7] = wild type E. coli NCM3722, growth: C-lim chemostat, doubling time 12 h
[8] = wild type E. coli NCM3722, growth: N-lim chemostat, doubling time 6 h
[9] = wild type E. coli NCM3722, growth: N-lim chemostat, doubling time 12 h
[10] = wild type E. coli NCM3722, growth: P-lim chemostat, doubling time 6 h
[11] = wild type E. coli NCM3722, growth: P-lim chemostat, doubling time 12 h
[12] = E. coli NCM3722 delta-lon, growth: N-lim chemostat, doubling time 6 h

| Sequence | total protein half-life in vivo [1] [h] | total protein half-life in vivo [2] [h] | total protein half-life in vivo [3] [h] | total protein half-life in vivo [4] [h] | total protein half-life in vivo [5] [h] | total protein half-life in vivo [6] [h] | total protein half-life in vivo [7] [h] | total protein half-life in vivo [8] [h] | total protein half-life in vivo [9] [h] | total protein half-life in vivo [10] [h] | total protein half-life in vivo [11] [h] | total protein half-life in vivo [12] [h] |
| --- | --- | --- | --- | --- | --- | --- | --- | --- | --- | --- | --- | --- |
| MSQKLKVVTIGGGSSYTPELLEGFIKRYHELPVSELWLVDVEGGKPKLDIIFDLCQRMIDNAGVPMKLYKTLDRREALKDADFVTTQLRVGQLPARELDERIPLSHGYLGQETNGAGGLFKGLRTIPVIFDIVKDVEELCPNAWVINFTNPAGMVTEAVYRHTGFKRFIGVCNIPIGMKMFIRDVLMLKDSDDLSIDLFGLNHMVFIKDVLINGKSRFAELLDGVASGQLKASSVKNIFDLPFSEGLIRSLNLLPCSYLLYYFKQKEMLAIEMGEYYKGGARAQVVQKVEKQLFELYKNPELKVKPKELEQRGGAYYSDAACEVINAIYNDKQAEHYVNIPHHGQIDNIPADWAVEMTCKLGRDGATPHPRITHFDDKVMGLIHTIKGFEIAASNAALSGEFNDVLLALNLSPLVHSDRDAELLAREMILAHEKWLPNFADCIAELKKAH | 6.05 ± 1.9 | 7.38 | > 8 | 3.97 ± 0.054 | 2.84 ± 0.34 | 6.45 ± 1.8 | 9.95 ± 0.38 | 4.52 | 8.23 ± 0.59 | 6.29 ± 0.62 | 11 ± 1.1 | – |
| MSQLNSVWVFSDNPERYAELFGGAQQWGQQVYAIVQNTDQAQAVMPYGPKCLYVLAQNDALQRTENYAESIAALLKDKHPAMLLLAATKRGKALAARLSVQLNAALVNDATAVDIVDGHICAEHRMYGGLAFAQEKINSPLAIITLAPGVQEPCTSDTSHQCPTETVPYVAPRHEILCRERRAKAASSVDLSKAKRVVGVGRGLAAQDDLKMVHELAAVLNAEVGCSRPIAEGENWMERERYIGVSGVLLKSDLYLTLGISGQIQHMVGGNGAKVIVAINKDKNAPIFNYADYGLVGDIYKVVPALISQLSR | 5.37 ± 0.057 | – | 4.24 | – | – | – | – | – | 6.04 | – | – | – |
| MSQLTHINAAGEAHMVDVSAKAETVREARAEAFVTMRSETLAMIIDGRHHKGDVFATARIAGIQAAKRTWDLIPLCHPLMLSKVEVNLQAEPEHNRVRIETLCRLTGKTGVEMEALTAASVAALTIYDMCKAVQKDMVIGPVRLLAKSGGKSGDFKVEADD [P0A738] | 5.289 ± 0.028 | 5.03 ± 0.15 | 4.56 ± 0.47 | 3.95 ± 0.17 | 2.9 ± 0.24 | 4.96 ± 0.099 | 8.28 ± 0.49 | 4.1 ± 0.28 | 5.91 ± 0.19 | 4.92 ± 0.059 | 9.42 ± 0.47 | 4.41 ± 0.087 |
| MSQNLDATAINQIHALISAQGVNEIISKIGADAVALPENFRIHDLEKFNLNRFRFRGALSTASIDDFTRYSKDLADEGTRCFIDADNMRAVSVLNLGTIDEPGHADNTATLKLKKTAPFSALLSVNGERNSQKSLAEWIEDWADYLVGFDANGDAIQATKAAAAIRKITIEANQTADFEDNDFSGKRSLMESVEAKTKDIMPVAFEFKCVPFEGLKERPFKLRLSIITGDRPVLVLRIIQLEAVQEDMANEFRDLLVEKFKDSKVETFIGTFTA | 3.03 ± 0.25 | 3.16 | – | – | 2.69 | 5.13 ± 0.22 | 9.79 ± 0.92 | – | 5.29 | 5.71 ± 0.56 | 15.2 ± 0.98 | – |
| MSQNVYQFIDLQRVDPPKKPLKIRKIEFVEIYEPFSEGQAKAQADRCLSCGNPYCEWKCPVHNYIPNWLKLANEGRIFEAAELSHQTNTLPEVCGRVCPQDRLCEGSCTLNDEFGAVTIGNIERYINDKAFEMGWRPDMSGVKQTGKKVAIIGAGPAGLACADVLTRNGVKAVVFDRHPEIGGLLTFGIPAFKLEKEVMTRRREIFTGMGIEFKLNTEVGRDVQLDDLLSDYDAVFLGVGTYQSMRGGLENEDADGVYAALPFLIANTKQLMGFGETRDEPFVSMEGKRVVVLGGGDTAMDCVRTSVRQGAKHVTCAYRRDEENMPGSRREVKNAREEGVEFKFNVQPLGIEVNGNGKVSGVKMVRTEMGEPDAKGRRRAEIVAGSEHIVPADAVIMAFGFRPHNMEWLAKHSVELDSQGRIIAPEGSDNAFQTSNPKIFAGGDIVRGSDLVVTAIAEGRKAADGIMNWLEV | 5.1 ± 0.5 | 4.59 ± 0.21 | 4.73 ± 0.05 | 4.63 ± 0.37 | 2.7 ± 0.04 | 4.602 ± 0.032 | 7.68 ± 0.49 | 4.9 ± 0.24 | 7.719 ± 0.058 | 4.54 ± 0.39 | 8.48 ± 0.63 | 5.25 ± 0.19 |
| MSQPLLSVNGLMMRFGGLLAVNNVNLELYPQEIVSLIGPNGAGKTTVFNCLTGFYKPTGGTILLRDQHLEGLPGQQIARMGVVRTFQHVRLFREMTVIENLLVAQHQQLKTGLFSGLLKTPSFRRAQSEALDRAATWLERIGLLEHANRQASNLAYGDQRRLEIARCMVTQPEILMLDEPAAGLNPKETKELDELIAELRNHHNTTILLIEHDMKLVMGISDRIYVVNQGTPLANGTPEQIRNNPDVIRAYLGEA [P0A9S7] | 6.52 ± 0.66 | 6.12 ± 0.48 | 6.06 ± 0.53 | 5.74 ± 0.43 | 3.12 ± 0.036 | 6.18 ± 0.31 | 11.99 ± 0.11 | 6.06 ± 0.2 | 12.3 ± 0.36 | 6.12 ± 0.34 | 12.9 ± 0.69 | 6.07 ± 0.61 |
| MSQPLNADQELVSDVVACQLVIKQILDVLDVIAPVEVREKMSSQLKNIDFTNHPAAADPVTMRAIQKAIALIELKFTPQGESH [P0AD10] | 5.83 ± 0.39 | – | 5.15 | 3.91 ± 0.9 | 3.21 | 4.53 ± 0.82 | 8.31 ± 0.17 | 3.32 | 6.2 | 4.76 ± 1.4 | 10.3 ± 0.33 | – |

Source: the supplement of paper PMC11246515
